Measurements from US20050009743A1.

Tests used:
[1] = molecular target: (CA-CTD)2, two copies of the HIV-1 CA C-terminal dimerization domain in tandem (plasmid WISP0070) (HIV-1 NL4-3); test: equilibrium sedimentation (analytical ultracentrifugation), 22,000 rpm, 4 °C, 25 mM phosphate pH 7.0, 100 mM NaCl, 2 mM DTT; self-association
[2] = molecular target: (CA-CTD)2, two copies of the HIV-1 CA C-terminal dimerization domain in tandem (plasmid WISP0070) (HIV-1 NL4-3); test: Superdex 75 gel filtration, 4 mg/ml loaded, 25 mM phosphate pH 7.2, 150 mM NaCl; self-association
[3] = molecular target: CA-NC(G94D) with the CA A42D mutation (plasmid WISP01125) (HIV-1 NL4-3); test: self-assembly of 9 µM mutant protein with 1 µM d(TG)50, overnight at 4 °C, 500 mM NaCl, 50 mM Tris-HCl pH 8.0; light scattering at 312 nm
[4] = molecular target: CA-NC(G94D) with the CA W184A/M185A mutations (plasmid WISP01127) (HIV-1 NL4-3); test: as above
[5] = molecular target: HIV-1 CA-NC (wild-type) (HIV-1 NL4-3); test: self-assembly of 9 µM protein with 1 µM d(TG)50, overnight at 4 °C, 500 mM NaCl, 50 mM Tris-HCl pH 8.0; light scattering at 312 nm (the filing puts the higher signal down to aggregation)
[6] = molecular target: HIV-1 CA-NC(G94D) protein (HIV-1 NL4-3 Gag amino acids 133-433 with the point mutation G94D; plasmid WISP9868) (HIV-1 NL4-3); test: self-assembly of 9 µM CA-NC(G94D) with 1 µM d(TG)50, 16 h at 4 °C, 500 mM NaCl, 50 mM Tris-HCl; light scattering at 312 nm
[7] = molecular target: HIV-1 CA-NC(G94D) protein (HIV-1 NL4-3 Gag amino acids 133-433 with the point mutation G94D; plasmid WISP9868) (HIV-1 NL4-3); test: self-assembly of 9 µM CA-NC(G94D) with 0.03 mg/ml d(TG)38, overnight at 4 °C, 500 mM NaCl, 50 mM Tris-HCl pH 8.0; light scattering at 312 nm
[8] = molecular target: HIV-1 CA-NC(G94D) protein (HIV-1 NL4-3 Gag amino acids 133-433 with the point mutation G94D; plasmid WISP9868) (HIV-1 NL4-3); test: self-assembly of 9 µM protein with 1 µM d(TG)50, overnight at 4 °C, 500 mM NaCl, 50 mM Tris-HCl pH 8.0; light scattering at 312 nm
[9] = molecular target: HIV-1 CA-NC(G94D) protein (HIV-1 NL4-3 Gag amino acids 133-433 with the point mutation G94D; plasmid WISP9868) (HIV-1 NL4-3); test: self-assembly of 9 µM CA-NC(G94D) with 0.03 mg/ml random 100-base oligonucleotide d(N)100, overnight at 4 °C, 500 mM NaCl, 50 mM Tris-HCl pH 8.0; light scattering at 312 nm (only slightly above background)
[10] = molecular target: HIV-1 CA-NC(G94D) protein (HIV-1 NL4-3 Gag amino acids 133-433 with the point mutation G94D; plasmid WISP9868) (HIV-1 NL4-3); test: self-assembly of 9 µM CA-NC(G94D) with 0.03 mg/ml d(TG)25, overnight at 4 °C, 500 mM NaCl, 50 mM Tris-HCl pH 8.0; light scattering at 312 nm
[11] = molecular target: HIV-1 CA-NC(G94D) protein (HIV-1 NL4-3 Gag amino acids 133-433 with the point mutation G94D; plasmid WISP9868) (HIV-1 NL4-3); test: self-assembly of 9 µM CA-NC(G94D) with 0.03 mg/ml d(TG)50, overnight at 4 °C, 500 mM NaCl, 50 mM Tris-HCl pH 8.0; light scattering at 312 nm

With “(CA-CTD)2, two copies of the HIV-1 CA C-terminal dimerization domain in tandem (plasmid WISP0070)” as the substance, how does the Kd [1] read?
Its Kd is under 1 µM.

What about the apparent mass (gel filtration, oligomerization state) [2] of the same substance?
Its apparent mass (gel filtration, oligomerization state) is 59 kDa.

“CA-NC(G94D) with the CA A42D mutation (plasmid WISP01125)” was tested. Which Abs312 (light scattering of cylinder formation) [3] did it give?
The Abs312 (light scattering of cylinder formation) was 0.025.

“CA-NC(G94D) with the CA W184A/M185A mutations (plasmid WISP01127)” was tested. Which Abs312 (light scattering of cylinder formation) [4] did it give?
Its Abs312 (light scattering of cylinder formation) is 0.008.

For HIV-1 CA-NC (wild-type), which Abs312 (light scattering of cylinder formation) [5] is on record?
Its Abs312 (light scattering of cylinder formation) is 0.735.

With “HIV-1 CA-NC(G94D) protein (HIV-1 NL4-3 Gag amino acids 133-433 with the point mutation G94D; plasmid WISP9868)” as the substance, how does the Abs312 (light scattering of cylinder formation) [6] read?
The Abs312 (light scattering of cylinder formation) was 0.3 to 0.4.

What about the Abs312 (light scattering of cylinder formation) [7] of the same substance?
The Abs312 (light scattering of cylinder formation) was 0.279.

And the Abs312 (light scattering of cylinder formation) [8]?
Its Abs312 (light scattering of cylinder formation) is 0.292.

And the Abs312 (light scattering of cylinder formation) [9]?
Its Abs312 (light scattering of cylinder formation) is 0.035.

And the Abs312 (light scattering of cylinder formation) [10]?
Its Abs312 (light scattering of cylinder formation) is 0.2.

And the Abs312 (light scattering of cylinder formation) [11]?
The Abs312 (light scattering of cylinder formation) was 0.292.
